Source: US20250066487A1 (ABL BIO, published 2025)

B1: AB41 (antibody, human IgG4 S228P, kappa, V domains shown)
VH: QVQLQQSGAEVIKPGASVKLSCKASGYTFSSYWMHWVRQAPGQGLEWIGEINPGNGHTNYNEKFKSRATLTGDTSTSTVYMELSSLRSEDTAVYYCARSFTTARAFAYWGQGTLVTVSS
VL: DIVMTQSPAFLSVTPGEKVTITCRASQTISDYLHWYQQKPDQAPKLLIKYASQSISGIPSRFSGSGSGTDFTFTISSLEAEDAATYYCQDGHSFPPTFGQGTKLEIKR
notes: Full-length IgG form; also called anti-4-1BB antibody AB41 (full-length IgG form)
B2: Urelumab (antibody, V domains shown)
VH: QVQLQQWGAGLLKPSETLSLTCAVYGGSFSGYYWSWIRQSPEKGLEWIGEINHGGYVTYNPSLESRVTISVDTSKNQFSLKLSSVTAADTAVYYCARDYGPGNYDWYFDLWGRGTLVTVSS
VL: EIVLTQSPATLSLSPGERATLSCRASQSVSSYLAWYQQKPGQAPRLLIYDASNRATGIPARFSGSGSGTDFTLTISSLEPEDFAVYYCQQRSNWPPALTFGGGTKVEIK
B3: 1A12 (antibody, human IgG4 S228P, lambda, V domains shown)
VH: EVQLLESGGGLVQPGGSLRLSCAASGFTFSGYDMSWVRQAPGKGLEWVSVIYPDDGNTYYADSVKGRFTISRDNSKNTLYLQMNSLRAEDAAVYYCAKHGGQKPTTKSSSAYGMDGWGQGTLVTVSS
VL: QSVLTQPPSASGTPGRRVTISCSGSSSNIGNNYVTWYQQLPGTAPKLLIYADSHRPSGVPDRFSGSKSGTSASLAISGLRSEDEADYYCATWDYSLSGYVFGGGTKLTVLG
notes: Full-length IgG form; also called 1Al2; anti-4-1BB antibody 1A12 (full-length IgG form)

Assays:
[1] = target: T1, human 4-1BB-Fc protein (Sino Biological) (human, UniProt Q07011 24-186); test: ELISA, plate coated with human 4-1BB-Fc, detection with anti-human IgG-HRP
T1 construct: Bought protein; not shown: Fc part of the bought fusion protein

[2] = target: T2, human 4-1BB expressed on GloResponse NFκB-luc2/4-1BB Jurkat cells (Promega) (human, UniProt Q07011 24-255); test: cell-based or functional assay
[3] = target: T2, human 4-1BB expressed on GloResponse …; test: cell-based or functional assay; remark: listed apart in the source

T2 sequence (Q07011 24-255 limits assumed): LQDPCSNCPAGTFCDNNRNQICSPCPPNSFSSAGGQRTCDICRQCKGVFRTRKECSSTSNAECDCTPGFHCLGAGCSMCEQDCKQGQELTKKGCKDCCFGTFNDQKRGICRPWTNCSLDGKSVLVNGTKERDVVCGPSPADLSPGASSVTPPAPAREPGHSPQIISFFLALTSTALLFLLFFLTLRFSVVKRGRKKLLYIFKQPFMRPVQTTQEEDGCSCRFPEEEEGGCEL
T1 sequence (Q07011 24-186 limits assumed): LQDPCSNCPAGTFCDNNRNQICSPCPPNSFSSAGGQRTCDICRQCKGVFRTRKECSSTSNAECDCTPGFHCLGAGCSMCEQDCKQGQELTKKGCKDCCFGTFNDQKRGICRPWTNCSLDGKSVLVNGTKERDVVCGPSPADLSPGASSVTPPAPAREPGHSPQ

| Binder | EC50 [1] | EC50, FcγRIIb-independent 4-1BB bioassay [2] | Fold of induction (RLU), FcγRIIb-independent 4-1BB bioassay [2] | EC50, FcγRIIb-dependent 4-1BB bioassay [3] | Fold of induction (RLU), FcγRIIb-dependent 4-1BB bioassay [3] |
| --- | --- | --- | --- | --- | --- |
| B1 | 0.2 nM | – | – | – | – |
| B2 | – | 0.537 nM | 14.1 fold (RLU) | 0.239 nM | 190 fold (RLU) |
| B3 | 0.18 nM | – | – | – | – |
